According to article PMC7343536 (Cell, 2017):
Read-outs that look alike come from different tables or passages of the source. No end group written: not given here.

What was measured:
[1] = target: T1, Ssb2 (purified recombinant) (S. cerevisiae, UniProt P40150 1-613); experiment: stopped-flow fluorescence, peptide release
[2] = target: T1, Ssb2 (purified recombinant); experiment: stopped-flow fluorescence, peptide release; remark: listed apart in the source

T1 sequence (P40150 whole entry): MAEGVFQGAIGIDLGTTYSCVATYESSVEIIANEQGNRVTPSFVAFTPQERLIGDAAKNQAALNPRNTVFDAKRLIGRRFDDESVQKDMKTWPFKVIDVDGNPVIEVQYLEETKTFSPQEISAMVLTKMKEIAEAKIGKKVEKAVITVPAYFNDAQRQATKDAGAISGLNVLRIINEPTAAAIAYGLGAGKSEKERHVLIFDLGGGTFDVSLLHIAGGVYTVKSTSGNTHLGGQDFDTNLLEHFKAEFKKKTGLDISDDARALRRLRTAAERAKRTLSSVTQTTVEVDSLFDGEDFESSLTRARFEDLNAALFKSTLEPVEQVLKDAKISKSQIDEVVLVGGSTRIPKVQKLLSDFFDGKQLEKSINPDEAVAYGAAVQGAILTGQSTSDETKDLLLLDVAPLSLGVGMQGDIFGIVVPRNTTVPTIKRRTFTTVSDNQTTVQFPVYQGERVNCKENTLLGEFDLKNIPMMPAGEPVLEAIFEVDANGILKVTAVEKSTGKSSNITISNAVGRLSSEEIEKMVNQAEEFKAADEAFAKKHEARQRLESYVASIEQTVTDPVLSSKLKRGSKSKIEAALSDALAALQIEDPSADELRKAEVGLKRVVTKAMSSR

B1: IAANS labeled peptide substrate σ32-Q132-Q144-C (peptide)
peptide: QRKLFFNLRKTKQC
modifications: not fully specified (residue 14); also: labeled with IAANS, site not given here
half-life of the complex [1]: 7.7 ± 6.7 min
half-life of the complex [2]: 3.9 ± 0.2 h
